# B1: Catenin beta-1 (Mus musculus), Q02248 (parent)
# chain: MATQADLMELDMAMEPDRKAAVSHWQQQSYLDSGIHSGATTTAPSLSGKGNPEEEDVDTSQVLYEWEQGFSQSFTQEQVADIDGQYAMTRAQRVRAAMFPETLDEGMQIPSTQFDAAHPTNVQRLAEPSQMLKHAVVNLINYQDDAELATRAIPELTKLLNDEDQVVVNKAAVMVHQLSKKEASRHAIMRSPQMVSAIVRTMQNTNDVETARCTAGTLHNLSHHREGLLAIFKSGGIPALVKMLGSPVDSVLFYAITTLHNLLLHQEGAKMAVRLAGGLQKMVALLNKTNVKFLAITTDCLQILAYGNQESKLIILASGGPQALVNIMRTYTYEKLLWTTSRVLKVLSVCSSNKPAIVEAGGMQALGLHLTDPSQRLVQNCLWTLRNLSDAATKQEGMEGLLGTLVQLLGSDDINVVTCAAGILSNLTCNNYKNKMMVCQVGGIEALVRTVLRAGDREDITEPAICALRHLTSRHQEAEMAQNAVRLHYGLPVVVKLLHPPSHWPLIKATVGLIRNLALCPANHAPLREQGAIPRLVQLLVRAHQDTQRRTSMGGTQQQFVEGVRMEEIVEGCTGALHILARDVHNRIVIRGLNTIPLFVQLLYSPIENIQRVAAGVLCELAQDKEAAEAIEAEGATAPLTELLHSRNEGVATYAAAVLFRMSEDKPQDYKKRLSVELTSSLFRTEPMAWNETADLGLDIGAQGEALGYRQDDPSYRSFHSGGYGQDALGMDPMMEHEMGGHHPGADYPVDGLPDLGHAQDLMDGLPPGDSNQLAWFDTDL
# Variants of: B1
# Conditions: with MAPK9, P45984-1
row,effect of a mutation on the interaction,Variant
1,disrupting interaction,S191A;S246A;S605A
2,decreasing interaction,S605A
3,disrupting interaction,S191A
4,decreasing interaction,S246A

# Source: IntAct's records for PubMed 18423204
